Measurements published in patent US20170258835A1.
Values belong to the binder of their own block, whether it stands above or below them.

Target: PD1-Z CLEAR
Experiment: flow cytometry, T cells 18 h after co-electroporation of PD1-Z RNA and bi-specific antibody RNA, stained with anti-mouse IgG Fab PE and anti-PD1 APC; same quadrant in the controls: EP16 PD1-Z alone 2.42, EP20 No RNA 0.086

Sequence of PD1-Z CLEAR (chain, as listed by the source limits assumed): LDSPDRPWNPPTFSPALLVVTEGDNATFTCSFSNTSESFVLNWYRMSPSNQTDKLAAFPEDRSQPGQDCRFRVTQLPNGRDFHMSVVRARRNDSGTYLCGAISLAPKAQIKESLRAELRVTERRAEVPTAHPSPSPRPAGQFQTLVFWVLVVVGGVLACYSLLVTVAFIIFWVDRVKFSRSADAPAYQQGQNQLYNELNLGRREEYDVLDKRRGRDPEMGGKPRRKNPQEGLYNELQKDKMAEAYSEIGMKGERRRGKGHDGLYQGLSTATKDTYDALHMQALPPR

percent of cells PD1+ mIgG Fab+ (upper right quadrant): 57.1
B1: 4A11-4D5-4 (bispecific antibody, part only; not given: anti-ErbB2 scFv 4D5-4 and linker, not shown: another chain or arm of the molecule; small tags and cut ends)
scFv: DIQMTQSPSSLSASVGDRVSITCRASQGISSWLAWYQQKPEKAPKSLIYAASNLRSGVPSRFSGSGSGTDFTLTISSLQPEDFATYYCQQYYSYPRTFGQGTKVEIKGGGGSGGGGSGGGGSQLQLQESGPGLVKPSETLSLTCTVSGGSLSRSSFFWGWIRQPPGKGLEWIGSIYYSGSTYYNPSLKSRVTISVDTSKNQFSLKLSSVTAADTAVYYCVRDYDILTGDEDYWGQGTLVTVSS

percent of cells PD1+ mIgG Fab+ (upper right quadrant): 35.6
B2: 4A11-4D5-3 (bispecific antibody, part only; not given: anti-ErbB2 scFv 4D5-3 and linker, not shown: another chain or arm of the molecule; small tags and cut ends)
scFv: B1 scFv
